Literature values as cited in paper PMC4495883.

Target: insulin-degrading enzyme (112 kDa protein) (Rattus norvegicus) (UniProt P35559)
Test: cross-linking

Chain of UniProt P35559 (P35559 whole entry): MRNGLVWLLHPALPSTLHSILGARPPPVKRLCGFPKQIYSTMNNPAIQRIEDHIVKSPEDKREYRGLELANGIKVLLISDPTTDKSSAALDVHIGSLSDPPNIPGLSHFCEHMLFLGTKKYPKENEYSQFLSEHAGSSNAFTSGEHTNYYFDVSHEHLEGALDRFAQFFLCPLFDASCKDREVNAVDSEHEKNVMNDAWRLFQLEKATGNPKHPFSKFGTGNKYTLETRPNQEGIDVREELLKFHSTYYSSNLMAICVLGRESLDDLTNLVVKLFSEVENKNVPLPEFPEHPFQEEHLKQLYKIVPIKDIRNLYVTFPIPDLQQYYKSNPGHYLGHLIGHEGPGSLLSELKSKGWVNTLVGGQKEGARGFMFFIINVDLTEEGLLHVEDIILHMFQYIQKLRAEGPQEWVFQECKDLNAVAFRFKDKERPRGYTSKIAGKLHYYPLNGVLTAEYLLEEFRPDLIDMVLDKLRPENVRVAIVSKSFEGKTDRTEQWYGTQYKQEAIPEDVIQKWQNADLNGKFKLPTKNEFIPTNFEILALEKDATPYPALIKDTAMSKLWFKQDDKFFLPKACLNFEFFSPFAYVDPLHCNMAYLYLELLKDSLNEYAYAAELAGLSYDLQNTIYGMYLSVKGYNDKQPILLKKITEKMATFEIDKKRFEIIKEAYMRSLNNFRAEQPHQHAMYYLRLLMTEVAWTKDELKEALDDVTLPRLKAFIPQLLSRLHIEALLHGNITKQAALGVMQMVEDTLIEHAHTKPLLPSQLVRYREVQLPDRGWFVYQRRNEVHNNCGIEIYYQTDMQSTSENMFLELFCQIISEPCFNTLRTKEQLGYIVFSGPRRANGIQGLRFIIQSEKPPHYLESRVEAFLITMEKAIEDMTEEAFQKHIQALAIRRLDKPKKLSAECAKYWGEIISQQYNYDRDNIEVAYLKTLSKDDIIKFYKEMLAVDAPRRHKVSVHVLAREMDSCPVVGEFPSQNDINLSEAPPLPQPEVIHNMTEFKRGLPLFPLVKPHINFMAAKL

Substance: ANP (from UniProt P01161)
- Kd: 60 nM
